Results as given in US20240350835A1 (AMBRX, published 2024).
Positions count from the first letter of the chain named.

B1: Chimeric Anti-PSMA Antibody ADC, MMAF payload, Non-Cleavable (PEG3) linker (antibody, human IgG1, kappa, V domains shown)
VH: EVQLQQSGPELVKPGTSVRISCKTSGYTFTEYTIHWVKQSHGKSLEWIGNINPNNGGTTYNQKFEDKATLTVDKSSSTAYMELRSLTSEDSAVYYCAAGWNFDYWGQGTTLTVSS
VL: DIVMTQSHKFMSTSVGDRVSIICKASQDVGTAVDWYQQKPGQSPKLLIYWASTRHTGVPDRFTGSGSGTDFTLTITNVQSEDLADYFCQQYNSYPLTFGAGTKVEIKR
modifications: para-acetyl phenylalanine (pAF) at position A114 (Kabat numbering; first residue of the heavy chain constant region), conjugated to non-cleavable (PEG3) MMAF drug-linker
B2: Chimeric Anti-PSMA Antibody ADC, MMAE payload, Short Cleavable (Valine-Citruline-Acetyl) linker (antibody, human IgG1, kappa, V domains shown)
VH: B1 VH
VL: B1 VL
modifications: para-acetyl phenylalanine (pAF) at position A114 (Kabat numbering; first residue of the heavy chain constant region), conjugated to short cleavable (Valine-Citruline-Acetyl) MMAE drug-linker
B3: Chimeric Anti-PSMA Antibody ADC, MMAF payload, Short Cleavable (Valine-Citruline-Acetyl) linker (antibody, human IgG1, kappa, V domains shown)
VH: B1 VH
VL: B1 VL
modifications: para-acetyl phenylalanine (pAF) at position A114 (Kabat numbering; first residue of the heavy chain constant region), conjugated to short cleavable (Valine-Citruline-Acetyl) MMAF drug-linker
B4: Chimeric Anti-PSMA Antibody ADC, MMAF payload, Cleavable (Val-Citruline-PEG1) linker (antibody, human IgG1, kappa, V domains shown)
VH: B1 VH
VL: B1 VL
modifications: para-acetyl phenylalanine (pAF) at position A114 (Kabat numbering; first residue of the heavy chain constant region), conjugated to cleavable (Val-Citruline-PEG1) MMAF drug-linker
B5: Chimeric Anti-PSMA Antibody ADC, MMAE payload, Non-Cleavable (PEG3) linker (antibody, human IgG1, kappa, V domains shown)
VH: B1 VH
VL: B1 VL
modifications: para-acetyl phenylalanine (pAF) at position A114 (Kabat numbering; first residue of the heavy chain constant region), conjugated to non-cleavable (PEG3) MMAE drug-linker
B6: Humanized Anti-PSMA Antibody Variant 1 ADC, MMAE payload, Non-Cleavable (PEG3) linker (antibody, human IgG1, kappa, V domains shown)
VH: QVQLVQSGAEVKKPGASVKVSCKASGYTFTEYTIHWVRQAPGQRLEWMGNINPNNGGTTYNQKFEDRVTITRDTSASTAYMELSSLRSEDTAVYYCAAGWNFDYWGQGTTLTVSS
VL: DIQLTQSPSFLSASVGDRVTITCKASQDVGTAVDWYQQKPGKAPKLLIYWASTRHTGVPSRFSGSGSGTEFTLTISSLQPEDFATYYCQQYNSYPLTFGGGTKVEIKR
modifications: para-acetyl phenylalanine (pAF) at position A114 (Kabat numbering; first residue of the heavy chain constant region), conjugated to non-cleavable (PEG3) MMAE drug-linker
B7: Humanized Anti-PSMA Antibody Variant 1 ADC, MMAE payload, Short Cleavable (Valine-Citruline-Acetyl) linker (antibody, human IgG1, kappa, V domains shown)
VH: B6 VH
VL: B6 VL
modifications: para-acetyl phenylalanine (pAF) at position A114 (Kabat numbering; first residue of the heavy chain constant region), conjugated to short cleavable (Valine-Citruline-Acetyl) MMAE drug-linker
B8: Humanized Anti-PSMA Antibody Variant 2 ADC, MMAF payload, Short Cleavable (Valine-Citruline-Acetyl) linker (antibody, human IgG1, kappa, V domains shown)
VH: B6 VH
VL: B6 VL with P80S
modifications: para-acetyl phenylalanine (pAF) at position A114 (Kabat numbering; first residue of the heavy chain constant region), conjugated to short cleavable (Valine-Citruline-Acetyl) MMAF drug-linker
B9: Humanized Anti-PSMA Antibody Variant 2 ADC, MMAF payload, Non-Cleavable (PEG3) linker (antibody, human IgG1, kappa, V domains shown)
VH: B6 VH
VL: B6 VL with P80S
modifications: para-acetyl phenylalanine (pAF) at position A114 (Kabat numbering; first residue of the heavy chain constant region), conjugated to non-cleavable (PEG3) MMAF drug-linker
B10: Humanized Anti-PSMA Antibody Variant 1 ADC, MMAF payload, Non-Cleavable (PEG3) linker (antibody, human IgG1, kappa, V domains shown)
VH: B6 VH
VL: B6 VL
modifications: para-acetyl phenylalanine (pAF) at position A114 (Kabat numbering; first residue of the heavy chain constant region), conjugated to non-cleavable (PEG3) MMAF drug-linker
B11: Humanized Anti-PSMA Antibody Variant 1 ADC, MMAF payload, Cleavable (Val-Citruline-PEG1) linker (antibody, human IgG1, kappa, V domains shown)
VH: B6 VH
VL: B6 VL
modifications: para-acetyl phenylalanine (pAF) at position A114 (Kabat numbering; first residue of the heavy chain constant region), conjugated to cleavable (Val-Citruline-PEG1) MMAF drug-linker
B12: Humanized Anti-PSMA Antibody Variant 2 ADC, MMAE payload, Short Cleavable (Valine-Citruline-Acetyl) linker (antibody, human IgG1, kappa, V domains shown)
VH: B6 VH
VL: B6 VL with P80S
modifications: para-acetyl phenylalanine (pAF) at position A114 (Kabat numbering; first residue of the heavy chain constant region), conjugated to short cleavable (Valine-Citruline-Acetyl) MMAE drug-linker
B13: Humanized Anti-PSMA Antibody Variant 1 ADC, MMAF payload, Short Cleavable (Valine-Citruline-Acetyl) linker (antibody, human IgG1, kappa, V domains shown)
VH: B6 VH
VL: B6 VL
modifications: para-acetyl phenylalanine (pAF) at position A114 (Kabat numbering; first residue of the heavy chain constant region), conjugated to short cleavable (Valine-Citruline-Acetyl) MMAF drug-linker
B14: Humanized Anti-PSMA Antibody Variant 2 ADC, MMAF payload, Cleavable (Val-Citruline-PEG1) linker (antibody, human IgG1, kappa, V domains shown)
VH: B6 VH
VL: B6 VL with P80S
modifications: para-acetyl phenylalanine (pAF) at position A114 (Kabat numbering; first residue of the heavy chain constant region), conjugated to cleavable (Val-Citruline-PEG1) MMAF drug-linker
B15: Humanized Anti-PSMA Antibody Variant 2 ADC, MMAE payload, Non-Cleavable (PEG3) linker (antibody, human IgG1, kappa, V domains shown)
VH: B6 VH
VL: B6 VL with P80S
modifications: para-acetyl phenylalanine (pAF) at position A114 (Kabat numbering; first residue of the heavy chain constant region), conjugated to non-cleavable (PEG3) MMAE drug-linker
B16: Humanized Anti-PSMA (full length) Variant 2 (antibody, human IgG1, kappa, V domains shown)
VH: B6 VH
VL: B6 VL with P80S
notes: Humanized J591 (CDR graft), full length; expressed transiently in HEK293 cells, supernatant tested by FACS on LnCap cells; also called humanized anti-PSMA variant 2; Humanized Anti-PSMA Antibody Variant 2
B17: Humanized Anti-PSMA (full length) Variant 4 (antibody, human IgG1, kappa, V domains shown)
VH: B6 VH
VL: B6 VL with S77N
notes: Humanized J591 (CDR graft), full length; expressed transiently in HEK293 cells, supernatant tested by FACS on LnCap cells; also called humanized anti-PSMA variant 4
B18: Humanized Anti-PSMA (full length) Variant 3 (antibody, human IgG1, kappa, V domains shown)
VH: B6 VH
VL: B6 VL with S60D
notes: Humanized J591 (CDR graft), full length; expressed transiently in HEK293 cells, supernatant tested by FACS on LnCap cells; also called humanized anti-PSMA variant 3

Biological target: T1, prostate specific membrane antigen (PSMA) (UniProt Q04609 1-750, limits assumed)
Assay: cell-based or functional assay

T1 sequence (Q04609 whole entry): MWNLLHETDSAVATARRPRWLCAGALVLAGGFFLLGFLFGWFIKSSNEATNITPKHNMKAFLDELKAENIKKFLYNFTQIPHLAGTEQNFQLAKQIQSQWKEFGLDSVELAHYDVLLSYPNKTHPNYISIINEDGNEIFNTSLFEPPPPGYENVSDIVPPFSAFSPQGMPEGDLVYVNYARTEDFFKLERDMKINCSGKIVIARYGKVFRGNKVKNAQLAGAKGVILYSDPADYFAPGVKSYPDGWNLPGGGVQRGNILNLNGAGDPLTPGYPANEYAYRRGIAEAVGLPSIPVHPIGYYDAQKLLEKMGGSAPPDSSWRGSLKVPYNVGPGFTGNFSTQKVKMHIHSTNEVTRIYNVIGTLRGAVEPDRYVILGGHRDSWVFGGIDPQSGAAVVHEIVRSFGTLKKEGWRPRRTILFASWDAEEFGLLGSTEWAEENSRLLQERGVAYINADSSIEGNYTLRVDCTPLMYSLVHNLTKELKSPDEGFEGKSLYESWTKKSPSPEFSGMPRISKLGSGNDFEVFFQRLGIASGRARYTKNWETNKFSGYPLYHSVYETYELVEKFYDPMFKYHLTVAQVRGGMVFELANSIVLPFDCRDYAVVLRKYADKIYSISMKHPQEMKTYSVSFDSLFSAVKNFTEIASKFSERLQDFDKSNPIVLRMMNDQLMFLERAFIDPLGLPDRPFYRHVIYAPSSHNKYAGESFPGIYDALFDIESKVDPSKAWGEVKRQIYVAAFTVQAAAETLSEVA

Binder	Cell Killing (%), C4-2 cell line [%]	IC50 (nM), in vitro cell killing in C4-2 cell line (Cell Titer Glo, 96 h) [nM]
B1	89.5	0.295
B2	82.5	0.425
B3	94.5	0.049
B4	89.5	0.047
B5	62.5	10.2
B6	64.5	11.3
B7	81.5	0.542
B8	91	0.053
B9	81	0.503
B10	80.5	0.543
B11	91	0.066
B12	81.5	0.52
B13	92	0.064
B14	91	0.051
B15	67	12.5

Biological target: T1, prostate specific membrane antigen …
Assay: FACS, HEK293 supernatants on LnCap cells expressing PSMA
Source text: Example 2: Antibody Humanization-Parental mouse J591 (Liu et al., Cancer Research, 57, […], 1997) antibody was humanized by selecting human frameworks based on sequence identity with the mouse framework sequence. The light chain and heavy chain CDRs from the mouse antibody were grafted onto the human frameworks, respectively, and analyzed for binding to PSMA antigen. Humanized variants were generated by pairing four human heavy chain frameworks with six light chain frameworks. The variants were expressed transiently in HEK293 cells and the supernatants were tested for binding to the PSMA antigen expressed in LnCap cells by FACS. Table 4 describes a selected heavy chain variable region sequence and 4 light chain variable region sequences used for further studies. […] ID Nos: 8 and the light chain sequence of SEQ. […] ID Nos: 10 and the light chain sequence of SEQ. […] ID Nos: 12 and the light chain sequence of SEQ. […] ID Nos: 14 and the light chain sequence of SEQ. ID Nos: 15.

Binder	binding result
B16	binds
B17	binds
B18	binds
